Assay results published in publication PMC8549803, “Dithiolane quartets: thiol-mediated uptake enables cytosolic delivery in deep tissue” (Chemical Science, 2021).
Entries after “also recorded” stand apart in the source; their conditions may differ. Read-outs that look alike come from different tables or passages of the source.

How the values were obtained:
[1] = Solubility of streptavidin/peptide complexes in water; assay type: physicochemical
Method: However, this interpretation should not be overestimated because the CP50 = 2.5 ± 0.2 μM remained near those of single dithiolane quartets in 19 and 1.

[2] = test system: HGM cells; test: 2D HC-CAPA (chloroalkane penetration assay), cytosolic delivery in 2D cell culture; assay type: cell-based; details: 4 h; for CP50, half maximal cell-penetration concentration: HGM cells (HeLa stably expressing HaloTag-GFP-Mito), complexes 0 to max 20 μM in Leibovitz's, 37 °C, then HRO 2 5 μM 15 min, high-content fluorescence imaging, Hill analysis of DRCs, duplicates; for Uptake activity in 2D CAPA, in words: HGM cells, up to 20 μM
Method: Cytosolic delivery into 2D cell culture was determined first using the chloroalkane penetration assay (CAPA).[55–57] This assay has been introduced recently by Kritzer et al. as a reliable tool to quantitatively measure cytosolic delivery.[55–57] The CAPA method operates with HGM cells, i.e. HeLa cells that stably express a fusion protein of HaloTag and GFP on mitochondria (Fig. 1c). Chloroalkylated transporters that reach the cytosol will react with these HaloTags, while all unused HaloTags will react with subsequently added chloroalkylated TAMRA 2. The result is decreasing TAMRA fluorescence with increasing uptake of transporters. Automated high-content high-throughput imaging has been introduced to measure TAMRA fluorescence only inside of healthy cells and generate high-precision dose–response curves (DRCs, Fig. 3) while simultaneously reporting on cell viability.[50] The uptake efficiency is reported as CP50 value, that is the transporter concentration needed to inhibit HaloTag labeling with 2 by 50%, determined by the Hill analysis of DRCs. In conventional 2D cell culture, complex 1 afforded CP50 = 3.6 ± 0.3 μM (Fig. 2, 3a, filled circles, Table 1).
Complex 22 was similarly prepared using 6 µL of peptide 12 (10 mM in DMSO, 3 […]
Complex 23 was similarly prepared using 4 µL of peptide 13 (10 mM in DMSO, 2 […]
Complex 24 was similarly prepared using 2 µL each of peptides 12 and 13 (10 mM in DMSO, 1 equivalent each).
Complex 25 was similarly prepared using 4 µL of peptide 14 (10 mM in DMSO, 2 […]
Complex 26 was similarly prepared using 2 µL each of peptides 13 and 14 (10 mM in […]
HeLa cells stably expressing the HaloTag-GFP-Mito fusion protein (HGM): The cells were originally designed by the Chenoweth lab as described in ref. S10. They were cultured using the described procedure in ref. S4.
3.2.1 General HC-CAPA protocol
As in ref. S11, HGM cells were seeded at 8 ×10^4 cells/mL in FluoroBrite DMEM + 10% FBS on μ-Plates 96-well ibiTreat sterile and kept at 37 °C with 5% CO2 overnight. Next day, cells were washed with PBS ([…]) and the media were exchanged to Leibovitz’s (4 × 150 μL/well) using a plate washer, keeping a final volume of 135 μL/well. Then, serial dilutions of the corresponding complexes 1, 15-26 in PBS were prepared in a 96-well V-bottom plate and added to the μ-Plate containing the cells (15 μL/well, 10x final concentration in PBS) to reach a final volume of 150 μL/well (0 to maximum 20 μM). Cells were incubated for 4 h at […]
37 °C with 5% CO2. After this, cells were washed again and HRO 2 was added (15 μL/well, 50 μM in PBS) to reach a final volume of 150 μL/well (5 μM), except for the control wells, where only PBS was added (15 μL/well). After 15 min of incubation at 37 °C with 5% CO 2, the plate was washed again. Then, Hoechst 33342 was added (15 μL/well, 170 μM in PBS) to reach a final volume of 150 μL/well (17 μM). After 15 min of incubation at 37 °C with 5% CO2, the plate was washed one last time and the cells were kept in clean Leibovitz’s media.
During imaging, samples were kept at 37 °C with 5% CO2. A total of 16 images/well at 40x were recorded, using three channels: blue (excitation filter: 37 7/50 nm, emission filter: 477/60 nm, exposure time: 10 ms), green (excitation filter: 475/34 nm, emission filter: 536/40 nm, exposure time: 20 ms) and red (excitation filter: 531/40 nm, emission filter: 593/40 nm, […]
(§1) Duplicates were performed for each condition.
Fig. S2 Blue channel recording the Hoechst 33342 localization in the nuclei (left), green channel recording the GFP signal in the mitochondria (middle) and red channel recording the signal from HRO 2 (right) covalently attached to HaloTag protein in the mitochondr ia. Scale […]
3.2.2. HC-CAPA analysis protocol
As in ref. S11, for each cell, the DAPI and GFP channel images were used for the segmentation of the nuclei and whole cell body, respectively. Three successive filters have then been used for the cell selection process: […]

[3] = test system: HGM spheroids; test: 3D HC-CAPA, cytosolic delivery in multicellular spheroids; assay type: cell-based; details: for Penetration of HGM spheroids (suppression of emission of CAPA probe 2), in words: 20 μM, 6 h, then 2 for 45 min, cross-sectional CSDM images 80 μm from surface; for SP50, half maximal spheroid-penetration concentration: 3D HC-CAPA, HGM spheroids 350–400 μm, complexes 0 to max 20 μM, 2 or 6 h, 37 °C, then HRO 2 5 μM 45 min, average TAMRA intensity over entire spheroid, Hill analysis of DRCs, duplicates
Method: Spheroids of HGM cells with an average size of 350–400 μm were prepared in cell-repellent U-bottom 96-well plates following standard procedures (Fig. 4a).[1–26] In cross-sectional confocal spinning disc microscopy (CSDM) images taken 80 μm from the surface, GFP emission was homogeneously distributed (Fig. 4b). Similarly the homogeneous cross-sectional TAMRA emission upon addition of 2 was consistent with unhindered passive diffusion of the small, cationic CAPA probe across the spheroid (Fig. 4c, m, red circles, 1c). […] Line-scan analysis of the TAMRA intensity along the cross-section in the CSDM image gave an almost linear decrease (Fig. 4m, green squares). […] Comparison of the line-scan analyses for 20 μM 19 after 2 h and 6 h incubation illustrated how transporter 19 penetrates the spheroids with time from the periphery to the center as expected for operational transcytosis (Fig. 4m, l vs. i). […] At c ∼ SP50, thiol-mediated delivery decreases linearly with increasing depth because the limited amount of transporter 19 provided is gradually consumed by kinetically competing direct translocation and irreversible reaction with the HaloTags on the mitochondria of the cells on the way into the spheroids. […]
HGM cells were seeded at 5 × 10^3 cells/mL in FluoroBrite DMEM + 10% FBS on NunclonTM SpheraTM U-bottom 96-well sterile μ-Plates and kept at 37 °C with 5% CO2 for 3 days. After the spheroids were formed, the medium was exchanged to Leibovitz’s (6 × 200 μL/well) using a Biotek MultiFloTM FX plate washer, keeping a final volume of 135 μL/well.
Then, serial dilutions of the corresponding complexes 18-20 in PBS were prepared in a 96-well V-bottom plate and added to the μ-Plate containing the spheroids (15 μL/well, 10x final concentration in PBS) to reach a final volume of 150 μL/well (0 to maximum 20 μM). Cells were incubated for 2 or 6 h at 37 °C with 5% CO2. After this, cells were washed again and HRO 2 was added (15 μL/well, 50 μM in PBS) to reach a final volume of 150 μL/well (5 μM), except for the control wells, where only PBS was added (15 μL/well). After 45 min of incubation at 37 °C with 5% CO2, the plate was washed again. Then, the plate was kept for 1 h at 37 °C with 5% CO2 and was washed again. During imaging, samples were kept at 37 °C with 5% CO2. A z-stack of 19 images/well (10 μm per step) at 10x were recorded, using two channels: green (excitation filter: 475/34 nm, emission filter: 536/40 nm, exposure time: 200 ms) and red (excitation filter: 531/40 nm, emission filter: 593/40 nm, exposure time: 200 ms), […]
as §1
Fig. S4 TL channel (left), Green channel recording the GFP signal in the mitochondria (middle left) and red channel recording the signal from HRO 2 (middle right) covalently attached to HaloTag protein in the mitochondria. Merged images showing colocalization of G FP and HRO 2 signals (right). Images are 2D projections of all planes. Scale bar: 100 μm.
3.3.2 3D HC-CAPA analysis protocol
For each spheroid, the TL and green channel images were used for the segmentation of the object. A gaussian filter was applied to blur the image and allow the creation of the spheroid […]
Fig. S5 Green channel recording the GFP signal in the mitochondria (left), applied Gaussian filter (middle) to generate the spheroid mask in white (right). Images are 2D projections of all planes. Scale bar: 100 μm. […]
3.3.2 3D HC-CAPA results for uptake quantification […]

[4] = streptavidin/peptide complex in water

| Substance | Solubility of complex in water, in words [1, 4] | CP50, half maximal cell-penetration concentration [2] [µM] | Uptake activity in 2D CAPA, in words [2] | Penetration of HGM spheroids (suppression of emission of CAPA probe 2), in words [3] | SP50, half maximal spheroid-penetration concentration [3] [µM] | Solubility of complex in water, in words [1] |
| --- | --- | --- | --- | --- | --- | --- |
| EEEEEE [compound 23, streptavidin 3/peptide 13 (EEEEEE) 1 : 2 complex] | soluble | >20 | inactive | – | – | – |
| EEEUUU [compound 19, 1 : 3 streptavidin 3/peptide 9 (EEEUUU) complex] | – | 3.8 ± 0.2 | preserved activity | almost complete disappearance of all fluorescence; also recorded: suppressed fluorescence throughout the spheroid | 5.3 ± 0.9 | – |
| EEUUUU [compound 21, 1 : 3 streptavidin 3/peptide 11 (EEUUUU) complex] | – | 2.5 ± 0.2 | most active of all transporters | – | – | – |
| EUEUEU [compound 1] | – | 3.6 ± 0.3 | – | suppressed fluorescence throughout the spheroid | – | – |
| EUEUeU [compound 16, 1 : 3 streptavidin 3/peptide 6 (EUEUeU) complex] | – | 16 ± 2 | – | – | – | – |
| EUUUUU [streptavidin complex of EUUUUU peptide, insoluble, not finalized] | – | – | – | – | – | insoluble in water |
| KKKKKK [compound 25, streptavidin 3/peptide 14 (KKKKKK) 1 : 2 complex, isostructural CPP control] | – | 2.8 ± 0.3 | in the range of the best dithiolane quartets | failed to penetrate HGM spheroids | – | – |
| UUUEEE [compound 20, 1 : 3 streptavidin 3/peptide 10 (UUUEEE) complex] | – | > 20 | inactive | – | 17 ± 6 | – |
| UUUUUU [compound 22] | insoluble in water | >20 | – | – | – | – |
